Publication PMC3172300, “Modulation of Catalytic Activity in Multi-Domain Protein Tyrosine Phosphatases” (PLoS ONE, 2011)
Counter-ions that a name gives are not always drawn. Like-named read-outs stand apart in the source and are kept apart here. One block for each molecule: values may come before it. Square brackets hold non-standard residues; d marks the D form. Ends that are not written are not given here. pY = N[C@@H](Cc1ccc(OP(=O)(O)O)cc1)C(=O)O

Tests used:
PTP99A D1D2 = target: T1, PTP99A D1D2 (Drosophila melanogaster, UniProt P35832); assay: PNC binding by fluorescence quenching, PTP99A D1D2; settings: 5.0 µM protein, 25 mM citrate pH 6.5; fluorescence quenching 350 nm; independent two site model; read-out: Kd1
T1 sequence (P35832 450-1050): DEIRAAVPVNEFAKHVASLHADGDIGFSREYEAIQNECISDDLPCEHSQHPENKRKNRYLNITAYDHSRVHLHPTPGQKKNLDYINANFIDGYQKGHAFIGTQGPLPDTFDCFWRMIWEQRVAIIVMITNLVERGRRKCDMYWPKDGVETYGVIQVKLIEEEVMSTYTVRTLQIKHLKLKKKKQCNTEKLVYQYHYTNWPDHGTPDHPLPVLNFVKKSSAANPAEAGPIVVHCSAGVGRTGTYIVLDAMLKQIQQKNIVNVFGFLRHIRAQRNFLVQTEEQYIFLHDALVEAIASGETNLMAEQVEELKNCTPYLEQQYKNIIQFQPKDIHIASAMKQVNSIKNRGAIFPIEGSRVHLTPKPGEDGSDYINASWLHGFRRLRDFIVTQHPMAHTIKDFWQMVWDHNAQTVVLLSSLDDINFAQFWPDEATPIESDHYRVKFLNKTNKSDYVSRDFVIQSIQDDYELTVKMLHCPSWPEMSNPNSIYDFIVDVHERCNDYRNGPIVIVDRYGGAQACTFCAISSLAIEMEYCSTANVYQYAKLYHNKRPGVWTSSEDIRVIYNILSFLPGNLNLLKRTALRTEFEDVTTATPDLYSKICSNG
Protocol: (§1) 5.0 µM of recombinant protein was titrated with increasing concentrations of PNC (Sigma-Aldrich) in 25 mM citrate buffer pH 6.5, 100 mM NaCl and 2 mM DTT. The closing of the WPD loop leads to the quenching of the intrinsic tryptophan fluorescence. Fluorescence quenching was monitored at 350 nm (emission maximum) for recombinant PTP domains and the dissociation constants were calculated by fitting the data to a hyperbolic equation of ligand binding using the nonlinear regression modules of Sigma Plot software (Systat Software Inc.).
(§2) To evaluate the differences in the phosphotyrosine binding pockets of the two domains of DLAR and PTP99A, a small molecule probe para-Nitrocatecholsulfate (2-hydroxy-5-nitrophenyl sulfate; PNC) was used. PNC acts as a small molecule competitive inhibitor of the PTPs as it mimics the phosphotyrosine residue. PNC binding was evaluated by monitoring the fluorescence quenching of the tryptophan residues in the WPD loop. […] PNC binding to the DLAR D1D2 construct fitted well to the independent ligand binding model for two non-interacting sites.

DLAR D1 = target: T2, DLAR D1 (Drosophila melanogaster, UniProt P16621); assay: PNC binding by fluorescence quenching, DLAR D1
T2 construct: DLAR 1448-1746; His tag (pET-15b or pET-22b); made in house; host or cells: E. coli BL21(DE3)
T2 sequence (P16621 1448-1746): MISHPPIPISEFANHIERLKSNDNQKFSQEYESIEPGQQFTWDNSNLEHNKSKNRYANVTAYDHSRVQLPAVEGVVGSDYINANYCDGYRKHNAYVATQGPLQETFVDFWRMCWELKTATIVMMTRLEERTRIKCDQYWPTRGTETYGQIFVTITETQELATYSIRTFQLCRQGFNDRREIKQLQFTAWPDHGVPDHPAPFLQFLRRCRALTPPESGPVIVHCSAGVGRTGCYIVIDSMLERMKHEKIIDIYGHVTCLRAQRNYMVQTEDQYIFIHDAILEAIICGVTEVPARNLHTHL
Protocol: as §1, §2

PTP99A D1 = target: T3, PTP99A D1 (Drosophila melanogaster, UniProt P35832); assay: PNC binding by fluorescence quenching, PTP99A D1; set-up: PTP99A 450-756; His tag (pET-15b or pET-22b); made in house; host or cells: E. coli BL21(DE3)
T3 sequence (P35832 450-756): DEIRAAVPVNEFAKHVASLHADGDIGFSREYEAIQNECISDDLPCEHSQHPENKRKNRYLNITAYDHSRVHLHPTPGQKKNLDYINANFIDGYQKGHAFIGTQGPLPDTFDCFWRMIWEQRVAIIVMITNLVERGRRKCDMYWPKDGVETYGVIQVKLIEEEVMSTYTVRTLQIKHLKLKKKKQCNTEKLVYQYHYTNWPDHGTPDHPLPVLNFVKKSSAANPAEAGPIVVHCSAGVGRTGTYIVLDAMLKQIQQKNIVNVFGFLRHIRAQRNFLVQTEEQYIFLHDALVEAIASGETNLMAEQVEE
Protocol: as §1, §2

DLAR D1D2 = target: T4, DLAR D1D2 (Drosophila melanogaster, UniProt P16621); assay: PNC binding by fluorescence quenching, DLAR D1D2; settings: 5.0 µM protein, 25 mM citrate pH 6.5, fluorescence quenching 350 nm, independent two site model
T4 construct: DLAR 1448-2029; His tag (pET-15b or pET-22b); made in house; host or cells: E. coli BL21(DE3)
T4 sequence (P16621 1448-2029): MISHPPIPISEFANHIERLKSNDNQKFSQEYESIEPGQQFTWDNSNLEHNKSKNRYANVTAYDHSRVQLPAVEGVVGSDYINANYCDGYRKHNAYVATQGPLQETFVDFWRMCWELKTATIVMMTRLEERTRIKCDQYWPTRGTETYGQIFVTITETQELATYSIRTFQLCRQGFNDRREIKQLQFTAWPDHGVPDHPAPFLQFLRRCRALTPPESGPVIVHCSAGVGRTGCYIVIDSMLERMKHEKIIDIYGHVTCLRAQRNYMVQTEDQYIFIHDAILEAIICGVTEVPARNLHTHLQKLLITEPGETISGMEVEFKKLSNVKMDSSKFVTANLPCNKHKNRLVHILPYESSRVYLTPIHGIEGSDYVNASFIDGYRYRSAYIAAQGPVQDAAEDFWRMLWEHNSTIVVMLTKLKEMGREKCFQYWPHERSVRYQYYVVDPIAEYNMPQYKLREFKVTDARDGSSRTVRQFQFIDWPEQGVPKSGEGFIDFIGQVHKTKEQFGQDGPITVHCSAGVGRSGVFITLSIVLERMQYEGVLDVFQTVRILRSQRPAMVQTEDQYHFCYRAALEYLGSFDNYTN
Protocol: as §1, §2

DLAR D2 = target: T5, DLAR D2 (Drosophila melanogaster, UniProt P16621); assay: PNC binding by fluorescence quenching, DLAR D2; settings: 5.0 µM protein, 25 mM citrate pH 6.5; fluorescence quenching 350 nm; single site model
T5 construct: DLAR 1728-2029; His tag (pET-15b or pET-22b); made in house; host or cells: E. coli BL21(DE3)
T5 sequence (P16621 1728-2029): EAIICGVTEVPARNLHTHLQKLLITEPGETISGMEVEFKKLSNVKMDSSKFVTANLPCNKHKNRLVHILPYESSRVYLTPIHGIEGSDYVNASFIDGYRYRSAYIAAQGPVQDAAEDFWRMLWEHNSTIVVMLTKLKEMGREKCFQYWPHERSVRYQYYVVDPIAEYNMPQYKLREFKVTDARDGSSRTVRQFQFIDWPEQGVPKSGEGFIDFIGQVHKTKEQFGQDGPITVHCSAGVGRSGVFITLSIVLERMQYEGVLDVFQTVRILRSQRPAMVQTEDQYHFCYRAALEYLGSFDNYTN
Protocol: as §1, §2

PTP99A D2 = target: T6, PTP99A D2 (Drosophila melanogaster, UniProt P35832); assay: PNC binding by fluorescence quenching, PTP99A D2
T6 sequence (P35832 740-1050): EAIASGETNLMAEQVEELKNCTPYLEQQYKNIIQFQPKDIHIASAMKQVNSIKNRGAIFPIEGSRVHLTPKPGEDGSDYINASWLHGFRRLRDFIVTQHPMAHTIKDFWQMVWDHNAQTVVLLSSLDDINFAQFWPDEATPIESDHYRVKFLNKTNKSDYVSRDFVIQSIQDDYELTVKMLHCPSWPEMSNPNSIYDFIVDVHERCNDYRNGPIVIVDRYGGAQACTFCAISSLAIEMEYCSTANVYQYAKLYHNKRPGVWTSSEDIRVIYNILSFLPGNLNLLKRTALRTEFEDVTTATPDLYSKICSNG
Protocol: as §1, §2

[1] = target: DLAR D1D2 (tandem PTP domains of Drosophila Leukocyte antigen Related) (Drosophila melanogaster); assay: SPR; Biacore-2000; DLAR PTP domains immobilised on CM5 chips by amine coupling; peptides as analyte at 50-700 µM; 25°C; 10 mM HEPES pH 8.0, 150 mM NaCl, 10 mM DTT, 3 mM EDTA; 5 µL/min; two independent sites fit for the double domain constructs, single-site fit for DLAR D1 and DLAR D2
[2] = target: DLAR D1D2HSS (Cys to Ser mutation in the D2 domain) (Drosophila melanogaster); assay: as above
[3] = target: DLAR D1 (membrane-proximal PTP domain of DLAR) (Drosophila melanogaster); assay: as above
[4] = target: DLAR D2 (membrane-distal PTP domain of DLAR) (Drosophila melanogaster); assay: as above
[5] = target: DLAR D1HSS D2 (Cys to Ser mutation in the D1 domain) (Drosophila melanogaster); assay: as above
[6] = 5.0 µM protein, 25 mM citrate pH 6.5, fluorescence quenching 350 nm, single site model

Molecule: O=[N+]([O-])c1ccc(O)c(OS(=O)(=O)O)c1 [PNC, 2-hydroxy-5-nitrophenyl sulfate]
Kd (PTP99A D1D2): 94.8 µM
Kd (DLAR D1; 5.0 µM protein, 25 mM citrate buffer pH 6.5, 100 mM NaCl, 2 mM DTT, tryptophan fluorescence quenching 350 nm, single site model): 235 µM
relative PNC binding (DLAR D1; two PTP domains of DLAR (D1 and D2) compared, fluorescence quenching): comparable affinities
Kd (PTP99A D1; [6]): 153 µM
relative PNC binding (PTP99A D1; D1 domain of PTP99A alone, fluorescence quenching): four times more favorable
Kd (DLAR D1D2; read-out: Kd1): 160 µM
Kd (DLAR D1D2; read-out: Kd2): 173 µM
Kd (DLAR D2): 214 µM
Kd (PTP99A D2; [6]): 716 µM
relative PNC binding (PTP99A D2; D2 domain of PTP99A compared to the other PTP domains, fluorescence quenching): much more poorly

KD, first binding site [1]: 313 µM
KD, second binding site [1]: 2.02 µM
ka, first binding site [1]: 32.6 M⁻¹ s⁻¹
ka, second binding site [1]: 16500 M⁻¹ s⁻¹
kd, first binding site [1]: 0.0102 s⁻¹
kd, second binding site [1]: 0.0333 s⁻¹
KD, first binding site [2]: 296 µM
KD, second binding site [2]: 9.43 µM
ka, first binding site [2]: 51.7 M⁻¹ s⁻¹
ka, second binding site [2]: 1.37 M⁻¹ s⁻¹
kd, first binding site [2]: 0.0153 s⁻¹
kd, second binding site [2]: 1.3e-05 s⁻¹
Kd [3]: 94.6 µM
koff [3]: 0.00176 s⁻¹
kon [3]: 18.6 M⁻¹ s⁻¹
Kd [4]: 104 µM
koff [4]: 0.00552 s⁻¹
kon [4]: 52.8 M⁻¹ s⁻¹
KD, first binding site [5]: 87.5 µM
KD, second binding site [5]: 1.87 µM
ka, first binding site [5]: 74.7 M⁻¹ s⁻¹
ka, second binding site [5]: 28800 M⁻¹ s⁻¹
kd, first binding site [5]: 0.00654 s⁻¹
kd, second binding site [5]: 0.054 s⁻¹
Molecule: TAEPD[pY]GALYE [Cuticle Peptide TAEPD(pY)GALYE]
